Results taken from patent US20150239980A1 (NEOTOPE BOSCIENCES, published 2015).

Tests used:
recombinant hMCAM-His [1] = biological target: T1, recombinant hMCAM-His (human, UniProt P43121 24-559); assay: ForteBio Octet Red, hMCAM-His analyte; Expt. #2; vs rodent 1749
T1 construct: not shown: His tag
T1 chain: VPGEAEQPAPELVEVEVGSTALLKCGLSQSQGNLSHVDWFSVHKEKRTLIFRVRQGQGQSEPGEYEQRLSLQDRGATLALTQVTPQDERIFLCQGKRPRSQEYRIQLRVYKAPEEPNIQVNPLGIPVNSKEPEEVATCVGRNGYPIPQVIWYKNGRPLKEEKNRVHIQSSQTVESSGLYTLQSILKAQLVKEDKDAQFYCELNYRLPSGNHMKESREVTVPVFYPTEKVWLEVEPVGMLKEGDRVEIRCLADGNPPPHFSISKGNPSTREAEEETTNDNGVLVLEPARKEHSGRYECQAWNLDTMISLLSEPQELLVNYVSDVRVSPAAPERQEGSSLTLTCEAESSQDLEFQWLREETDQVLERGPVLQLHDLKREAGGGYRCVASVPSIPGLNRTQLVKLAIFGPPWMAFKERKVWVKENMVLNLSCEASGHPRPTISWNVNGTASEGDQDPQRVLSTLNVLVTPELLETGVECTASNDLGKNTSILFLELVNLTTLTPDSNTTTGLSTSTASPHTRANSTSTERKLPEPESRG
Protocol: (§1) The affinities were measured using the ForteBio Octet Red. Anti-human Fc sensors were used to capture the humanized antibodies, and several concentrations of hMCAMHis analyte were used to determine the affinity using a 1:1 fitting model.

[2] = biological target: T2, human MCAM (melanoma cell adhesion molecule) expressed on transfected CHO cells (human, UniProt P43121 24-646); assay: flow cytometry, human MCAM CHO cells preincubated with antibody, competitor recombinant human laminin 411 at 20 ug/ml
T2 construct: also called hMCAM; CD146
T2 chain: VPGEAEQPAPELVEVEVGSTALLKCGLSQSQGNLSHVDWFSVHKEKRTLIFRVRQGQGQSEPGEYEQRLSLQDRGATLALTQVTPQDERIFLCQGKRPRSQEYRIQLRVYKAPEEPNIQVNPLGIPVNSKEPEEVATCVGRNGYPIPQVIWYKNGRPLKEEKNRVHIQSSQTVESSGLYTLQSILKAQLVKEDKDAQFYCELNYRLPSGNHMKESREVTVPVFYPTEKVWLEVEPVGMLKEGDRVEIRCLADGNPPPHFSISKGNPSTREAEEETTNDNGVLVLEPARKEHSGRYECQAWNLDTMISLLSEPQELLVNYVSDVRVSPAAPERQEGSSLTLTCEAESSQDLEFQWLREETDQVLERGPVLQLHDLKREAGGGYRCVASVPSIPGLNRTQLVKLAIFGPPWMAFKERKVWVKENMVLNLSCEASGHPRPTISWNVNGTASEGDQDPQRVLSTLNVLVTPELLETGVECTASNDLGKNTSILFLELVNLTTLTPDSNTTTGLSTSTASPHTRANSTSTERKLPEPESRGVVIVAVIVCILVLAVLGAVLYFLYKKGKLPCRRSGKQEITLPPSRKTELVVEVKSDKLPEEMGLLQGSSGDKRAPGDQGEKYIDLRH
Protocol: The 87 independent mouse fusion clones and 26 independent rat fusion clones described in Example 10 above as being capable of (i) binding to human MCAM, and (ii) blocking the interaction between human MCAM and the α-4 chain of laminin were further characterized as follows. First, IC50 quantitation for the ability of the monoclonal antibody to block the binding of human MCAM to the α-4 chain of laminin was determined as follows. CHO cells expressing human MCAM were incubated with an anti-human MCAM antibody (at various concentrations) for 30 minutes at 4 degrees Celsius. […] Unbound laminin was then washed away, and the laminin bound to the surface of the cells was detected with fluorescently labeled anti-laminin antibodies. After washing, the amount of laminin bound to the surface was detected by flow cytometry, and IC50s were calculated based on the mean fluorescent intensity.
These six anti-MCAM monoclonal antibody clones are herein referred to as (i) the mouse anti-human MCAM monoclonal clones 1174.1.3, 1414.1.2, 1415.1.1, and 1749.1.3, and (ii) the rat anti-human MCAM monoclonal antibody clones 2120.4.19 and 2107.4.10. […] As such, each of these specific monoclonal antibodies was very capable of binding to human MCAM and inhibiting the interaction of cell-expressed human MCAM with its α-4 laminin binding ligand.

recombinant hMCAM-His [3] = biological target: T1, recombinant hMCAM-His; assay: ForteBio Octet Red, hMCAM-His analyte; Expt. #1; vs rodent 1749
Protocol: as §1

recombinant hMCAM-His [4] = biological target: T1, recombinant hMCAM-His; assay: competitive ELISA on hMCAM-His, competitor biotinylated rodent or chimeric 1749; Expt. #2; vs rodent 1749
Method in brief: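 Plates coated with recombinant hMCAM-His and casein-blocked; biotinylated rodent or chimeric antibody at subsaturating level competed by 3× serial concentrations of unlabeled humanized, rodent or chimeric antibody. Bound biotinylated antibody detected with streptavidin-HRP/TMB at OD450; competitor IC50 fitted.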

B1: mouse anti-human MCAM monoclonal antibody clone 1749.1.3 (antibody, V domains shown)
VH: DVKLVESGGDLVKPGGSLKLSCAASGFTFSSYIMSWVRQTPEKRLEWVATISSGGSSTYYPDSVKGRFTISRDNAKNTLYLQMSSLKSEDTAMYYCTRDDDYDVKVFAYWGQGTLVTVSA
VL: DIVMSQSPSSLAVSAGEKVTMNCKSSRSLLNSRIRKNYLAWYQQKPGQSPKLLIYWASTRESGVPDRFTGSGSGTDFTLTISSVQAEDLAVYYCKQSYNLLTFGAGTKLELK
notes: mouse hybridoma antibody; also called rodent 1749; murine 1749.1.3 anti-MCAM antibody
In the case of B1, the “fold over rodent (Forte affinity)” value (recombinant hMCAM-His [1]) is reported as 1 fold, the IC50 [2] is reported as 0.545 µg/mL and the “fold over rodent (Forte affinity)” value (recombinant hMCAM-His [3]) is reported as 1 fold. For the same binder, the “fold over rodent (competitive ELISA)” value (recombinant hMCAM-His [4]) was 1 fold.
